Test results: patent US20180273617A1 (AstraZeneca / MedImmune, published 2018)

Molecular target: T1, human ASCT2 (SLC1A5) (human, UniProt Q15758 1-541)
T1 sequence (looked up): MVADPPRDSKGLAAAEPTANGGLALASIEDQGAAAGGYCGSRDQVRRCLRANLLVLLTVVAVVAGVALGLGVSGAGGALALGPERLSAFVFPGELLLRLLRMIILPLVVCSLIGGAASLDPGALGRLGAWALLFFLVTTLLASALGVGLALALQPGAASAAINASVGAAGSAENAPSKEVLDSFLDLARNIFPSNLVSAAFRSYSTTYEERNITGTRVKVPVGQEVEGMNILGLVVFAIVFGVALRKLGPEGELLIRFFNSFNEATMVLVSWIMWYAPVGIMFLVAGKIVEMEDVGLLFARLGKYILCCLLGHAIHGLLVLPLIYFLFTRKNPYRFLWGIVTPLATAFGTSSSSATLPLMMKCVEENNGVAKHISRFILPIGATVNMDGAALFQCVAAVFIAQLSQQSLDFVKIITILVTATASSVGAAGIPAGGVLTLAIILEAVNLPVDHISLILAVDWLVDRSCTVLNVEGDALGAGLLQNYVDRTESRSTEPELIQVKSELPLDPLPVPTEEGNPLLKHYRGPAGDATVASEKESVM
Experiment: cell-based or functional assay

B1: anti-ASCT2 antibody 17c10 conjugated to tubulysin AZ1508 (antibody, V domains shown)
VH: QVQLQQWGAGLLKPSETLSLTCAVYGGSFSGYYWSWIRQPPGKGLEWIGEIHHSGGANYNPSLKSRVTISVDTSKNQFSLKLTSVTAADTAVYYCARGQGKNWHYDYFDYWGQGTLVTVSS
VL: DIQMTQSPSTLSTSVGDRVTLTCRASQSIRSWLAWYQQNPGKAPKLLIYKASILKIGVPSRFSGSGSGTDFTLTITSLQPDDFATYYCQQYYSYSRTFGQGTKVEIK
modifications: tubulysin AZ1508 conjugated to a cysteine by a thiol-maleimide linkage; site not stated for these assays (engineered cysteine 239i or native cysteines)
B1 was tested, and the “IC50 (ng/ml), cytotoxic killing of SKMEL-2 cells, ASCT1-shRNA1 knockdown” value was 7.59 ng/mL, the “IC50 (ng/ml), cytotoxic killing of SKMEL-2 cells, ASCT1-shRNA2 knockdown” value was 4.96 ng/mL and the “IC50 (ng/ml), cytotoxic killing of SKMEL-2 cells, ASCT2-shRNA knockdown” value was 205 ng/mL. For the same binder, the “IC50 (ng/ml), cytotoxic killing of SKMEL-2 cells, NTshRNA (non-target control)” value was 14.3 ng/mL.
